Test results taken from the supplement of paper PMC9112550, “Optimization of the antimicrobial peptide Bac7 by deep mutational scanning” (BMC Biology, 2022).

Test system: Escherichia coli TOP10
Assay: shrunken log2 fold change of peptide-encoding DNA abundance (4.5 h post-induction vs induction); higher = less antimicrobial activity (less host growth inhibition)
Conditions: time post-induction: 4.5 h; library: site-saturation at positions 5, 18, 19, 20
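Also: peptides expressed intracellularly from a pBAD plasmid library in pooled LB shake-flask culture, induced with 0.3% L-arabinose, DNA abundance read by NGS, three biological replicates, DESeq2 with apeglm shrinkage.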

| Sequence | shrunken log2 fold change |
| --- | --- |
| RRIRLRPPRLPRPRPRPRVTPRP | -0.243 |
| RRIRARPPRLPRPRPRPGVFPRP | 0.502 |
| RRIRWRPPRLPRPRPRPNMFPRP | -0.0911 |
| RRIRIRPPRLPRPRPRPMYCPRP | -0.183 |
| RRIRTRPPRLPRPRPRPYQEPRP | -0.182 |
| RRIRERPPRLPRPRPRPPKCPRP | 0.0212 |
| RRIRTRPPRLPRPRPRPALGPRP | 0.898 |
| RRIRPRPPRLPRPRPRPYANPRP | -0.231 |
| RRIRLRPPRLPRPRPRPPCRPRP | 0.0548 |
| RRIRARPPRLPRPRPRPQMKPRP | 0.433 |
| RRIRRRPPRLPRPRPRPMAFPRP | 0.024 |
| RRIRFRPPRLPRPRPRPLWTPRP | -0.0265 |
| RRIRYRPPRLPRPRPRPHGMPRP | -0.922 |
| RRIRTRPPRLPRPRPRPEHMPRP | -0.0375 |
| RRIRPRPPRLPRPRPRPELTPRP | 0.537 |
| RRIRGRPPRLPRPRPRPQPIPRP | 0.114 |
| RRIRGRPPRLPRPRPRPEDAPRP | 1.65 |
| RRIRKRPPRLPRPRPRPFSLPRP | -0.189 |
| RRIRWRPPRLPRPRPRPHITPRP | -0.699 |
| RRIRIRPPRLPRPRPRPNCKPRP | -0.658 |
| RRIRIRPPRLPRPRPRPHSPPRP | -0.161 |
| RRIRERPPRLPRPRPRPTKHPRP | -0.347 |

| Sequence | shrunken log2 fold change |
| --- | --- |
| RRIRWRPPRLPRPRPRPPMNPRP | -0.0715 |
| RRIRFRPPRLPRPRPRPCYKPRP | -0.228 |
| RRIRARPPRLPRPRPRPEEYPRP | -0.0897 |
| RRIRSRPPRLPRPRPRPMHCPRP | 0.377 |
| RRIRDRPPRLPRPRPRPNHRPRP | -0.346 |
| RRIRARPPRLPRPRPRPKHYPRP | -0.277 |
| RRIRNRPPRLPRPRPRPYFVPRP | -0.312 |
| RRIRWRPPRLPRPRPRPLEFPRP | 0.0696 |
| RRIRTRPPRLPRPRPRPANWPRP | 0.0703 |
| RRIRVRPPRLPRPRPRPGPLPRP | 0.0392 |
| RRIRIRPPRLPRPRPRPCGNPRP | 0.00902 |
| RRIRCRPPRLPRPRPRPFRWPRP | 0.406 |
| RRIRWRPPRLPRPRPRPLKFPRP | -0.121 |
| RRIRLRPPRLPRPRPRPMVEPRP | -0.0178 |
| RRIRYRPPRLPRPRPRPGLNPRP | -0.489 |
| RRIRERPPRLPRPRPRPMRGPRP | 1.19 |
| RRIRHRPPRLPRPRPRPSRHPRP | 1.6 |
| RRIRRRPPRLPRPRPRPMSFPRP | -0.0277 |
| RRIRKRPPRLPRPRPRPSMIPRP | -0.0957 |
| RRIRERPPRLPRPRPRPRGTPRP | 0.0483 |
| RRIRHRPPRLPRPRPRPIVGPRP | -0.476 |
| RRIRGRPPRLPRPRPRPPWGPRP | 0.651 |

| Sequence | shrunken log2 fold change |
| --- | --- |
| RRIRSRPPRLPRPRPRPLCWPRP | 0.131 |
| RRIRNRPPRLPRPRPRPMTTPRP | -0.174 |
| RRIRFRPPRLPRPRPRPFWFPRP | -0.275 |
| RRIRDRPPRLPRPRPRPVNYPRP | -0.116 |
| RRIRQRPPRLPRPRPRPCKKPRP | 0.0212 |
| RRIRQRPPRLPRPRPRPTAAPRP | 0.933 |
| RRIRLRPPRLPRPRPRPVIFPRP | -0.141 |
| RRIRARPPRLPRPRPRPIDWPRP | 0.0607 |
| RRIRTRPPRLPRPRPRPWCPPRP | -0.139 |
| RRIRCRPPRLPRPRPRPGYAPRP | 0.085 |
| RRIRHRPPRLPRPRPRPQLLPRP | -0.197 |
| RRIRWRPPRLPRPRPRPSYKPRP | -0.479 |
| RRIRVRPPRLPRPRPRPNQKPRP | -0.115 |
| RRIRKRPPRLPRPRPRPQNHPRP | 2.37 |
| RRIRIRPPRLPRPRPRPTERPRP | -0.0197 |
| RRIRQRPPRLPRPRPRPASYPRP | -0.121 |
| RRIRPRPPRLPRPRPRPYFLPRP | -0.614 |
| RRIRVRPPRLPRPRPRPWWFPRP | -0.307 |
| RRIRMRPPRLPRPRPRPQCSPRP | 0.113 |
| RRIRPRPPRLPRPRPRPPYFPRP | 0.0747 |
| RRIRPRPPRLPRPRPRPDPCPRP | -0.0908 |
| RRIRLRPPRLPRPRPRPSRNPRP | -0.0105 |

| Sequence | shrunken log2 fold change |
| --- | --- |
| RRIRRRPPRLPRPRPRPQAGPRP | -9.87e-05 |
| RRIRLRPPRLPRPRPRPSNIPRP | -0.103 |
| RRIRCRPPRLPRPRPRPISSPRP | -0.0694 |
| RRIRFRPPRLPRPRPRPIHIPRP | -0.022 |
| RRIRKRPPRLPRPRPRPQTDPRP | -0.00442 |
| RRIRKRPPRLPRPRPRPCWLPRP | 0.246 |
| RRIRVRPPRLPRPRPRPTHDPRP | 0.143 |
| RRIRCRPPRLPRPRPRPHLVPRP | 0.565 |
| RRIRSRPPRLPRPRPRPWTVPRP | -0.0297 |
| RRIRYRPPRLPRPRPRPSSTPRP | -0.158 |
| RRIRGRPPRLPRPRPRPYKCPRP | -0.00955 |
| RRIRERPPRLPRPRPRPESYPRP | 0.0161 |
| RRIRDRPPRLPRPRPRPVLTPRP | 0.31 |
| RRIRYRPPRLPRPRPRPSTWPRP | -0.647 |
| RRIRLRPPRLPRPRPRPTKLPRP | -0.0137 |
| RRIRFRPPRLPRPRPRPNIMPRP | -0.658 |
| RRIRCRPPRLPRPRPRPYTWPRP | -1.09 |
| RRIRVRPPRLPRPRPRPHHDPRP | -0.37 |
| RRIRARPPRLPRPRPRPLGTPRP | 0.407 |
| RRIRFRPPRLPRPRPRPNYKPRP | -0.735 |
| RRIRHRPPRLPRPRPRPWRAPRP | -0.0415 |
| RRIRQRPPRLPRPRPRPTWTPRP | -0.0772 |

| Sequence | shrunken log2 fold change |
| --- | --- |
| RRIRQRPPRLPRPRPRPKGTPRP | 0.109 |
| RRIRRRPPRLPRPRPRPEHVPRP | 0.232 |
| RRIRLRPPRLPRPRPRPMWPPRP | -0.0364 |
| RRIRIRPPRLPRPRPRPSPDPRP | 0.127 |
| RRIRDRPPRLPRPRPRPKIHPRP | -0.214 |
| RRIRDRPPRLPRPRPRPENPPRP | 0.783 |
| RRIRMRPPRLPRPRPRPPIQPRP | 0.693 |
| RRIRIRPPRLPRPRPRPGVGPRP | 0.435 |
| RRIRPRPPRLPRPRPRPREVPRP | 0.419 |
| RRIRWRPPRLPRPRPRPSYTPRP | -0.656 |
| RRIRMRPPRLPRPRPRPMDPPRP | 0.038 |
| RRIRIRPPRLPRPRPRPHDDPRP | -0.177 |
| RRIRLRPPRLPRPRPRPNLIPRP | -0.117 |
| RRIRQRPPRLPRPRPRPQVDPRP | -0.0137 |
| RRIRPRPPRLPRPRPRPAQLPRP | 0.237 |
| RRIRKRPPRLPRPRPRPGGTPRP | 0.504 |
| RRIRSRPPRLPRPRPRPKLQPRP | 0.117 |
| RRIRPRPPRLPRPRPRPRISPRP | -0.145 |
| RRIRCRPPRLPRPRPRPWTLPRP | -0.282 |
| RRIRCRPPRLPRPRPRPDWKPRP | 0.0808 |
| RRIRIRPPRLPRPRPRPPAWPRP | 0.146 |
